Results on 1 protein are retold here after publication doi:10.1101/2021.03.01.433427 (bioRxiv, 2021).

The data set concerns the molecule itself. Put plainly: solid state NMR.

B1: His-tagged TDP-43-LC (low complexity domain of the TAR DNA-binding protein 43, residues 262-414) (domain or fragment)
chain: PKHNSNRQLERSGRFGGNPGGFGNQGGFGNSRGGGAGLGNNQGSNMGGGMNFGAFSINPAMMAAAQAALQSSWGMMGMLASQQNQSGPSGNNQNQGNMQREPNQAFGSGNNSYSGSNSGAAIGWGSASNAGSGSGFNGGFGSSMDSKSSGWGM
Take B1: the binding result was “binds”.
